Experimental data published in US20060009452A1, “Therapeutic targeting of PARC/CCL18 and its signaling in pulmonary fibrosis” (priority 2004, published 2006).
“Also recorded” adds a separate entry of the source.

Experiments:
[1] = system: mink lung epithelial cells; assay: Mink lung epithelial cell proliferation assay (thymidine incorporation); format: cell-based
Method: Mink Lung Epithelial Cell Proliferation Assay for Active TGF-β. Mink lung epithelial cell line CCL-64 was purchased from American Type Culture Collection (ATCC, Manassas, Va.) and maintained in high-serum medium. For proliferation assays, these cells were plated in 96-well plates at 1×10^4 cells/well in low-serum fibroblast cell culture medium and incubated overnight in humidified atmosphere of 5% CO2 at 37° C. The medium was then replaced with fibroblast cell culture supernatants or titrated dilutions rhTGF-β in low-serum medium, with and without neutralizing anti-pan-TGF-β antibody (clone 1D11 from R&D Systems), and incubation continued for additional 24 hours. Six hours before the end of the assay, wells were pulsed with 1 μCi of 3H-thymidine (Amersham). Quadruplicate cultures were harvested automatically and tritiated thymidine incorporation was measured with a TopCount NXT liquid scintillation counter (Perkin Elmer, Downers Grove, Ill.). Data were expressed as percent inhibition (versus low-serum medium used as a negative control), neutralized by 1 μg/ml of anti-TGF-β antibody (this concentration of the antibody was established in preliminary experiments as sufficient to completely abrogate the inhibitory effect of the fibroblast conditioned medium on mink lung epithelial cell proliferation). […]

lung fibroblasts = assay: Collagen production, metabolic labeling with 14C-proline, PAGE and autoradiography; format: cell-based, human
Method: Collagen Production Assays. Production of collagen was assessed using metabolic labeling with ^14C-proline and Western blotting with anti-collagen type I antibody. For metabolic labeling of collagen, fibroblasts were plated at 2×10^5 cells/well in 6-well plates (Costar, Cambridge, Mass.), in duplicates, incubated overnight in 3 ml/well of high serum medium, and then for 24 h in low-serum medium. After that, the culture medium was replaced with 1 ml/well of fresh low serum medium with or without added test substances and containing ^14C-proline at 1 μCi/ml (Amersham Pharmacia Biotech). After incubation for the desired periods of time, the cell culture supernatants were collected, rapidly frozen in liquid nitrogen and freeze-dried at −70° C. The pellets were dissolved in 100 μl of reducing Laemmli buffer per 1 ml of the cell culture supernatant, and the samples were electrophoretically separated in 7.5% acrylamide gels. Alternatively, samples were concentrated 10-fold by filter centrifugation on 30K Ultrafree-MC filters (Millipore, Bedford, Mass.). Fluorographic images were developed using EN[3H]ANCE autoradiography enhancer (NEN, Boston, Mass.). Gel images were acquired using Storm densitometer (Molecular Dynamics, Sunnyvale, Calif.), and the densities of the bands were analyzed with ImageQuant software (Molecular Dynamics). Dependence of collagen production by fibroblast cultures on the dose of PARC and duration of stimulation were evaluated using one-way ANOVA with post hoc testing.
The identity of collagen bands was confirmed by sensitivity to pepsin and collagenase (both from Sigma) digestion. For pepsin digestion, 2 μl of 1 Macetic acid were added to 40 μl of concentrated fibroblast culture supernatant, followed by 1 μl of pepsin stock, to achieve final concentration of pepsin as indicated in the text. After 15 min of digestion at room temperature, reaction was stopped with 4 μl of 1 M Tris base and 40 μl of reducing Laemmli buffer. For collagenase digestion, 1 μl of 4 U/ml bacterial collagenase and 1 μl of protease inhibitor cocktail (Sigma) were added to 40 μl of sample and digestion performed at room temperature for 30 min. The bacterial collagenase was highly purified and had minimal clostripain and neutral protease activity, as tested by the manufacturer, according to the product information sheet.
To test effects of rhPARC on collagen protein production by lung and dermal fibroblast cell lines, fibroblast cultures were incubated for 48 h with or without 30 ng/ml and 300 ng/ml rhPARC in the low-serum cell culture medium containing 14Cproline for metabolic labeling of collagen. Fibroblast culture supernatants contained two 14C-proline containing bands in gel electrophoresis under reducing conditions (FIGS. 13A and 13B). Digestion with chromatographically pure bacterial collagenase in the presence of protease inhibitors eliminated the bands completely (FIG. 13A). To confirm the identity of these bands, we conducted Western blotting experiments in reducing conditions of fibroblast culture supernatants using an anti-collagen type I antibody, that recognizes α1(I) collagen but not other collagen chains. Digestion with pepsin caused expected decrease in the apparent molecular weight of the immunoreactive collagen from ˜175 kD to ˜125 kD (FIG. 13C).

α2(I) collagen mRNA = assay: Real-time PCR for α2(I) collagen mRNA relative to 18S rRNA; format: cell-based, human
Sp1 [2] = assay: Sp1 immunoprecipitation and anti-phosphoserine Western blot; format: cell-based, human; settings: fibroblasts activated with rhPARC up to 24 hours
Method: To determine if PARC stimulated phosphorylation of Sp1 and Smad3, these factors were immunoprecipitated from lysates of fibroblasts that had been activated with recombinant human PARC for up to 24 hours, and the levels of their phosphorylation were tested in Western blotting assays using anti-phosphoserine and anti-phospho-Smad2/3 antibodies. Equal loading was controlled by stripping the membranes and re-developing them with anti-Sp1, anti-Smad3 and anti-Smad2/3 antibodies (FIG. 17).
Preparation of fibroblast lysates, immunoprecipitation of Sp1 and Smad2/3, normalization of protein concentration in the samples with BioRad assays, electrophoretic separation, Western blotting, membrane stripping and re-development with different antibodies were performed as described in Atamas et al. (Am. J. Respir. Cell. Mol., 29:743-749 (2003); J. Immunol. 168: 1139-1145 (2002); and Arthritis Rheum., 42:1168-1178 (1999)), which are hereby incorporated by reference. Rabbit antibodies for total Smad2/3 and Sp1 were from Upstate (Waltham, Masss.). Antiphospho-Smad2/3 antibody and goat antibody for total Smad3 were from Santa Cruz Biotechnology (Santa Cruz, Calif.), as was anti-gp130 antibody used to confirm equal loading of the samples. Antiphosphoserine antibody was from Biomol (Plymouth Meeting, Pa.).

Sp1 [3] = assay: TranSignal protein/DNA arrays of nuclear lysates; format: cell-based, human; settings: LF1 and LF2

B1: rhPARC: Recombinant human pulmonary and activation-regulated chemokine (CC chemokine CCL18), purchased from R&D Systems and Cell Sciences (protein)
chain: AQVGTNKELCCLVYTSWQIPQKFIVDYSETSPQCPKPGVILLTKRGRQICADPNKKWVQKYISDLKLNA
direct effect on proliferation of mink lung epithelial cells [1]: did not affect proliferation of mink lung epithelial cells
average increase in the density of collagen bands (lung fibroblasts; 48 h, 300 ng/ml rhPARC, responding lung and dermal lines): 3.4±0.9 fold
increase of fibroblast production of collagen over control (lung fibroblasts; 48 h, five out of seven tested lung and dermal fibroblast lines): more than 3 fold
combined density of procollagen bands, fold higher than non-stimulated control (lung fibroblasts; LF1 cells, 300 ng/ml rhPARC, 48 h): 3.4 fold
combined density of procollagen bands, fold higher than non-stimulated control (lung fibroblasts; LF2 cells, 30 ng/ml rhPARC, 48 h): 2.7 fold
combined density of procollagen bands, fold higher than non-stimulated control (lung fibroblasts; LF2 cells, 300 ng/ml rhPARC, 48 h): 4.4 fold
response of collagen production in one lung and one dermal fibroblast line (lung fibroblasts; up to 72 h, rhPARC up to 1,000 ng/ml): non-responsive
steady-state collagen α2(I) mRNA level versus control (α2(I) collagen mRNA; LF1 and LF2, 300 ng/ml rhPARC, 3 and 6 h): transiently increased; also recorded: higher than in control cells
higher concentration of collagen mRNA in treated samples versus control (α2(I) collagen mRNA; lung fibroblasts, 300 ng/ml rhPARC, 6 h): approximately 4 fold
level of Sp1 phosphorylation (Sp1 [2]): consistently increased
DNA binding by Sp1 (protein/DNA arrays) (Sp1 [3]): consistently increased
